We go through 1 protein from US8268575B2, “NAD biosynthesis systems” (Washington University, priority 2004, dated 2012).

Substrate in this series: NC(=O)c1cccnc1
The series is described as follows: purified protein, by the assay type. Particulars: other: substrate of Nampt, 37° C., pH 7.5.

The Km is the substrate concentration at which the rate is half of its maximum.

B1: purified recombinant mouse Nampt (Mus musculus) (protein)
chain: MNAAAEAEFNILLATDSYKVTHYKQYPPNTSKVYSYFECREKKTENSKVRKVKYEETVFYGLQYILNKYLKGKVVTKEKIQEAKEVYREHFQDDVFNERGWNYILEKYDGHLPIEVKAVPEGSVIPRGNVLFTVENTDPECYWLTNWIETILVQSWYPITVATNSREQKKILAKYLLETSGNLDGLEYKLHDFGYRGVSSQETAGIGASAHLVNFKGTDTVAGIALIKKYYGTKDPVPGYSVPAAEHSTITAWGKDHEKDAFEHIVTQFSSVPVSVVSDSYDIYNACEKIWGEDLRHLIVSRSTEAPLIIRPDSGNPLDTVLKVLDILGKKFPVTENSKGYKLLPPYLRVIQGDGVDINTLQEIVEGMKQKKWSIENVSFGSGGALLQKLTRDLLNCSFKCSYVVTNGLGVNVFKDPVADPNKRSKKGRLSLHRTPAGNFVTLEEGKGDLEEYGHDLLHTVFKNGKVTKSYSFDEVRKNAQLNIEQDVAPH
As for B1, the Michaelis constant (Km) stood at 0.92 µM.
